Patent US20020177126A1
pKd: −log10 of the molar value.

Experiments:
[1] = target: RSV F glycoprotein (NUF4) (respiratory syncytial virus (RSV)) (UniProt P03420); test: ITC, NUF4 titrated into antibody
[2] = target: RSV F glycoprotein (NUF4) (respiratory syncytial virus (RSV)) (UniProt P03420); test: ITC, NUF4 titrated into antibody, 35 °C
[3] = target: RSV F glycoprotein (NUF4) (respiratory syncytial virus (RSV)) (UniProt P03420); test: BIAcore, Mab vs NUF4, 1:1
[4] = target: RSV F glycoprotein (NUF4) (respiratory syncytial virus (RSV)) (UniProt P03420); test: BIAcore, Mab vs NUF4, 2:1

A4B4 (monoclonal antibody), sequence (VH): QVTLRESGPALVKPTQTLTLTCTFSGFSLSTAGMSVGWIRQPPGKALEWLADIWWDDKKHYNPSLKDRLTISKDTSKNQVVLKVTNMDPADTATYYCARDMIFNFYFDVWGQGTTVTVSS
A4B4 (monoclonal antibody), sequence (VL): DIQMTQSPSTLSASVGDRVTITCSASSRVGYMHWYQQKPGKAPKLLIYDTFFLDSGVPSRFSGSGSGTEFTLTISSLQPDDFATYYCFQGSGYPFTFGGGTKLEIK
SYNAGIS® (antibody), sequence (VH): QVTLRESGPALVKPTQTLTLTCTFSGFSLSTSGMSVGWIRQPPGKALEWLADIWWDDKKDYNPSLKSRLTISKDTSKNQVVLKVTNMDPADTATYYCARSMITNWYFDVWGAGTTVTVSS
SYNAGIS® (antibody), sequence (VL): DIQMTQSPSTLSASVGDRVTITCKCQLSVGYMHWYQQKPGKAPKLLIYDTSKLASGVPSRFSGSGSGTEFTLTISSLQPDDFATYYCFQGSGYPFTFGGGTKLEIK
RSV F glycoprotein (NUF4) (respiratory syncytial virus (RSV)), sequence (P03420 26-524): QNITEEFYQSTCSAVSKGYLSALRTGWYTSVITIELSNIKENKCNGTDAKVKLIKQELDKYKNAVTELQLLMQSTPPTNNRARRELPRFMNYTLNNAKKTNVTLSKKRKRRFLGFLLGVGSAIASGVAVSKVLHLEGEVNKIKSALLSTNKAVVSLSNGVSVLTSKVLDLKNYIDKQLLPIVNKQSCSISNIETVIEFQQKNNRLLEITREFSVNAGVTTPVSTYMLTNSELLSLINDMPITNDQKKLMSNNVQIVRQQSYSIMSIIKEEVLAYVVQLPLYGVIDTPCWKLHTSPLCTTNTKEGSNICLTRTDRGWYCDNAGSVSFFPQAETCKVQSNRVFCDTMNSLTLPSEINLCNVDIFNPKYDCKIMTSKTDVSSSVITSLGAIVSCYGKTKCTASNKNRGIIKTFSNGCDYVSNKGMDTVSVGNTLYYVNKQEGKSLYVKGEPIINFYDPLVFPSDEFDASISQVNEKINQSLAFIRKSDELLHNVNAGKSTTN

| Substance | Hb in kJ mol^-1 (binding enthalpy) [1] | Ka [2] | pKd [2] | pKd [3] | koff [3] | kon [3] | number in parentheses after KD (fold vs SYNAGIS) [3] | pKd [4] | koff [4] | kon [4] | number in parentheses after KD (fold vs SYNAGIS) [4] |
| --- | --- | --- | --- | --- | --- | --- | --- | --- | --- | --- | --- |
| A4B4 (monoclonal antibody) | 22.2 kcal/mol | 2.69e+08 M⁻¹ | 8.43 | 9.24 | 0.000282 s⁻¹ | 496000 M⁻¹ s⁻¹ | 15 fold | 8.70 | 0.000401 s⁻¹ | 203000 M⁻¹ s⁻¹ | 156 fold |
| SYNAGIS® (antibody) | 17 kcal/mol | 1.23e+06 M⁻¹ |  | 8.06 | 0.00265 s⁻¹ | 304000 M⁻¹ s⁻¹ | 1 fold | 6.51 | 0.0242 s⁻¹ | 78000 M⁻¹ s⁻¹ | 1 fold |
